Assay results: patent US20200299408A1 (Genentech, published 2020)
Substitutions are numbered along the chain they refer to. Names may count otherwise. “And” between values parts separate entries of the source, which are not always exact repeats. Identical values can stand only once.

B1: hu38E4.v1 H3 mutant F100bA (Fab, V domains shown)
VH: EVQLVQSGAEVKKPGASVKVSCKASGFTFTSYYIHWVRQAPGQGLEWIGWIYPENDNTKYNEKFKDRVTITADTSTSTAYLELSSLRSEDTAVYYCARDGYSRYYADYWGQGTLVTVSS
VL: DIVMTQSPDSLAVSLGERATINCKSSQSLLNSRTRKNYLAWYQQKPGQSPKLLIYWTSTRKSGVPDRFSGSGSGTDFTLTISSLQAEDVAVYYCKQSFILRTFGQGTKVEIK
notes: copies: 1 + 1
B2: hu38E4.v1 H3 mutant Y97A (Fab, V domains shown)
VH: B1 VH with Y101A, A106F
VL: B1 VL
notes: copies: 1 + 1
B3: hu38E4.v1 H3 mutant R99A (Fab, V domains shown)
VH: B1 VH with R103A, A106F
VL: B1 VL
notes: copies: 1 + 1
B4: 79B7 (antibody, IgG3, V domains shown)
VH: QVQLQQSGSELVRPGASLKLSCKASGYTFTSYWMHWVRQRPGQGLEWIGNSYPGDLNVNYDEKFKNKVTLAVDTSSSTAFLQLSSLTSEDSAVYYCTRDAYSRYFFDYWGQGTTLTVSS
VL: DIVMTQSPSSLAVSAGEKVTMSCKSSQSLLNSRTRKNYLAWYQQKPGQSPKLLIYWASTRESGVPDRFTGSGSGTDFTLTISSVQTEDLAVYYCCQSFILRTFGGGTKLEIK
notes: mouse hybridoma clone
B5: 39B7 (antibody, IgG2b, V domains shown)
VH: QVQLQQSGPELVKPGTSVKISCKTSGYNFINYYTHWVKQRPGQGLEWIGWIYPGNGNIKYNEKFMGKATLTADTSSTTAHMHLSSLVSEDSAVYYCARDSYGSYYFDYWGQGTTLTVSS
VL: B4 VL with S22T, T86A, C95K
notes: mouse hybridoma clone
B6: 95A2 (antibody, IgG3, V domains shown)
VH: QVQLQQSGPEMVKPGASVTISCKTSGFTFTSYYIHWMMQRPGQGLEWIGWLYPGDVSTRYNEKFRDKATLTADKSSTTAYLYLSSLTSEDSAVYFCARDSSASYYFDFWGQGTTLTVSS
VL: B4 VL with K18M, M21L, S22H, S32I, Q43L, K51R, E61A, T86P, C95T, I111L
notes: mouse hybridoma clone
B7: 118G9 (antibody, IgG3, V domains shown)
VH: QVQLQQPGSELVRPGASVTLSCTASGYSFTSYWMHWVKQRPGQGLEWVGNIYPGGEIINYAEKFKTKGTLTVDISSSTAYMHLSSLTSDDSAVYYCTRDTTGNYFFDYWGQGTTLTVSS
VL: B4 VL with Q48L, D66E, C95T, K108R
notes: mouse hybridoma clone
B8: 40G5 (antibody, V domains shown)
VH: QVQLQQSGPELVKPGTSVKMSCKASGYTFTNYYIHWVRQRPGQGLEWIGWIYPGDVSTKYNEKFKGKTTLTADKSSSTAYMLLSGLTSEDSAIYFCARDGYSFYYFDYWGQGTTLTVSS
VL: B4 VL with M4L, A40T, E61D, T69S, T86A, C95T, F98Y, I99T
notes: mouse hybridoma clone; not the consensus 40G5c; also called mu40G5
B9: 40D2 (antibody, IgG2b, V domains shown)
VH: QVQLQQSGPELVKPGASLKISCKASGYSFANYYTHWVRQRPGQGLEWIGWLYPGNGDTRYNEKFKDKATLTADTSSNTASMQLNSLTSEDSAVYYCTRDSYGNYFFDYWGQGTTLIVSS
VL: B4 VL with Y55F, T86A, C95K, I111L
notes: mouse hybridoma clone
B10: 40G5c CHO (bispecific antibody, V domains shown)
VH 1: EVQLVESGGGLVQPGGSLRLSCAASGYTFTSYNMHWVRQAPGKGLEWVGAIYPGNGDTSYNQKFKGRFTISVDKSKNTLYLQMNSLRAEDTAVYYCARVVYYSNSYWYFDVWGQGTLVTVSS
VL 1: DIQMTQSPSSLSASVGDRVTITCRASSSVSYMHWYQQKPGKAPKPLIYAPSNLASGVPSRFSGSGSGTDFTLTISSLQPEDFATYYCQQWSFNPPTFGQGTKVEIK
VH 2: EVQLVQSGAEVKKPGASVKVSCKASGYTFTNYYIHWVRQAPGQGLEWIGWIYPGDGNTKYNEKFKGRATLTADTSTSTAYLELSSLRSEDTAVYYCARDSYSNYYFDYWGQGTLVTVSS
VL 2: B1 VL with S49P, T57A, K61E, K95T
modifications: CHO-produced full-length knob-into-hole IgG with N297G in the Fc; constant regions are not in the letters.
notes: CHO material; also called CD3/CD20 TDB 2H7v16/40G5c produced in CHO, N297G
B11: 38E4v3 CHO (bispecific antibody)
anti-CD20 arm heavy chain: B10 VH 1
anti-CD20 arm light chain: B10 VL 1
anti-CD3 arm heavy chain: B1 VH with A106F
anti-CD3 arm light chain: B1 VL with I99A
notes: also called CD3/CD20 TDB 2H7v16/38E4v3
B12: 38E4v4 CHO (bispecific antibody)
anti-CD20 arm heavy chain: B10 VH 1
anti-CD20 arm light chain: B10 VL 1
anti-CD3 arm heavy chain: B1 VH with A106F
anti-CD3 arm light chain: B1 VL with Q96A
notes: also called CD3/CD20 TDB 2H7v16/38E4v4
B13: 38E4v6 CHO (bispecific antibody)
anti-CD20 arm heavy chain: B10 VH 1
anti-CD20 arm light chain: B10 VL 1
anti-CD3 arm heavy chain: B1 VH with D99T, A106F
anti-CD3 arm light chain: B1 VL
notes: also called CD3/CD20 TDB 2H7v16/38E4v6
B14: 38E4v5 CHO (bispecific antibody)
anti-CD20 arm heavy chain: B10 VH 1
anti-CD20 arm light chain: B10 VL 1
anti-CD3 arm heavy chain: B1 VH with A106F
anti-CD3 arm light chain: B1 VL with F98A
notes: also called CD3/CD20 TDB 2H7v16/38E4v5
B15: 38E4v2 CHO (bispecific antibody)
anti-CD20 arm heavy chain: B10 VH 1
anti-CD20 arm light chain: B10 VL 1
anti-CD3 arm heavy chain: B1 VH with G100A, A106F
anti-CD3 arm light chain: B1 VL
notes: also called CD3/CD20 TDB 2H7v16/38E4v2
B16: 38E4v8 CHO (bispecific antibody)
anti-CD20 arm heavy chain: B10 VH 1
anti-CD20 arm light chain: B10 VL 1
anti-CD3 arm heavy chain: B1 VH with D99S, A106F
anti-CD3 arm light chain: B1 VL
notes: also called CD3/CD20 TDB 2H7v16/38E4v8
B17: 38E4v7 CHO (bispecific antibody)
anti-CD20 arm heavy chain: B10 VH 1
anti-CD20 arm light chain: B10 VL 1
anti-CD3 arm heavy chain: B1 VH with Y105A, A106F
anti-CD3 arm light chain: B1 VL
notes: also called CD3/CD20 TDB 2H7v16/38E4v7
B18: 38E4v9 CHO (bispecific antibody)
anti-CD20 arm heavy chain: B10 VH 1
anti-CD20 arm light chain: B10 VL 1
anti-CD3 arm heavy chain: B1 VH with Y104A, A106F
anti-CD3 arm light chain: B1 VL
notes: also called CD3/CD20 TDB 2H7v16/38E4v9
B19: Rab17 (antibody, rabbit IgG1, V domains shown)
VH: QSVKESEGGLFKPTDTLTLTCTVSGCSLSSCAISWVRQAPGKGLEWIGFMSVTGSAYYANWAKSRSTITRNTNENTVTLKMTRLTAADTAIYFCARVGIGSGLNIWG
VL: DMTQTPSSKSVPVGDTVTINCQASETVYSNNYLAWFQQKPGQPPKRLIYGVSTLDSGVPPRFSGSGSGTQFTLTISDVVCDDAATYYCAGYKTSSSYAIAFGGGTELEIL
notes: clone from the rabbit immunization

Target: T1, single chain human CD3ε-26mer-CD3γ (CD3εγ) (human)
T1 construct: also called human CD3εγ
T1 chain: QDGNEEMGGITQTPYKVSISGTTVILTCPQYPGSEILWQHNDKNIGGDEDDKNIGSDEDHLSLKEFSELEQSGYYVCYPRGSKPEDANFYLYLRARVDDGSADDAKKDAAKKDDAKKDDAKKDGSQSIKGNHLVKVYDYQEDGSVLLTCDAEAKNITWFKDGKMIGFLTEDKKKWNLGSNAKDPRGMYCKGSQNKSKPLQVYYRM
Assay: Biacore single cycle kinetics: Fab captured by anti-human Fab, human CD3εγ injected (3-250 nM)
Text: In addition, position 95 in HVR-H3 was also mutated to serine, threonine, or glutamate. Variants with these single point mutations were expressed as Fabs in HEK293 cells and initially screened with a single cycle kinetics method on a Biacore T100. Selected variants were also scaled up and purified for a conventional multi-cycle kinetics method. For single cycle kinetics, Biacore Series S CM5 sensor chips were immobilized with anti-human Fab antibodies (Human Fab capture kit, GE Healthcare). […] For conventional multi-cycle kinetics, human CD3εγ, cyno CD3εγ, or a 27-mer peptide were immobilized on Biacore Series S CM5 sensor chip using the amine coupling kit from Biacore. Serial 3-fold dilutions of each Fab variant were injected at a flow rate of 30 μl/min. Each sample was analyzed with a protocol of 3-minute association and 3-minute dissociation. In both methods, the Biacore chips were regenerated using 10 mM Glycine (pH 1.7). Binding response was corrected by blank subtraction and a 1:1Languir model of simultaneous fitting of kₒₙ and koff was used for kinetics analysis.

| Binder | binding result |
| --- | --- |
| B1 | no binding (tested: 250 nM CD3εγ (p-1386; not on the sheet)) |
| B2 | no binding (tested: 250 nM CD3εγ (p-1386; not on the sheet)) |
| B3 | no binding (tested: 250 nM CD3εγ (p-1386; not on the sheet)) |

The binders below were run against CD3 antigen of Figures 3B and 3C (not named) (assay: kinetic table of IgGs; method and antigen not stated).

| Binder | Kd [nM] | koff [s⁻¹] | kon [M⁻¹ s⁻¹] |
| --- | --- | --- | --- |
| B4 | 0.224 | 3.41e-05 | 152000 |
| B5 | 0.331 | 7.31e-05 | 220000 |
| B6 | 0.0644 | 1.87e-05 | 290000 |
| B7 | 0.209 | 3.74e-05 | 179000 |
| B8 | 0.159 | 2.48e-05 | 156000 |
| B9 | 0.563 | 0.000111 | 197000 |

These binders were tested against T2, human CD3 on T cells (human, UniProt P07766 22-207) (assay: FACS on Jurkat cells (CD3); EC50 table for the curves of FIGS. 21A-21B; source CHO (N297G)).
T2 construct: whole, on cells; On cells CD3ε stands in the CD3/TCR complex; also called CD3 antigen; CD3ε
Experimental: (§1) Binding affinities for the each of the CD3/CD20 TDBs were tested by Biacore or FACS analysis, as described above for the anti-CD3 antibodies. Briefly, for Biacore binding assays, human CD3εγ was immobilized on Biacore Series S CM5 sensor chip using the amine coupling kit from Biacore and CD3/CD20 TDBs or Fab variants thereof were in the flow through. For FACS binding assays, either Bjab cells (for B cell antigens) or Jurkat cells (for CD3 antigen) were incubated with various concentrations of TDB antibodies at 4° C. for 30 minutes, then cells were washed and incubated with 2nd antibody (anti-huIgG-PE; BD Bioscience) for another 15 minutes, before cells were washed again and ready for FACS analysis.

| Binder | EC50 |
| --- | --- |
| B10 | 2.01 µg/mL and ~13 nM |
| B11 | 0.29 µg/mL and ~1.9 nM |
| B12 | 3.51 µg/mL and ~23 nM |
| B13 | 5.56 µg/mL and ~36 nM |
| B14 | 4.11 µg/mL and ~27 nM |
| B15 | 0.52 µg/mL and ~3.4 nM |
| B16 | 7.23 µg/mL and ~47 nM |
| B17 | 22.6 µg/mL and ~147 nM |
| B18 | 15 µg/mL and ~97 nM |

Target: T1, single chain human CD3ε-26mer-CD3γ …
Assay: Biacore, human CD3εγ on chip, TDB in flow through
Experimental: as §1

| Binder | Kd | koff [s⁻¹] | kon [M⁻¹ s⁻¹] |
| --- | --- | --- | --- |
| B10 | 51.5 nM | 0.0307 | 597000 |
| B11 | 3.21 nM and 3.2 nM | 0.016 | 4.98e+06 |
| B12 | 137 nM and 136 nM | 0.0984 | 721000 |
| B13 | 37600 nM | 0.878 | 23400 |
| B14 | 16 nM | 0.0515 | 3.22e+06 |
| B15 | 2.43 nM and 2.4 nM | 0.00513 | 2.11e+06 |
| B16 | 3930 nM | 0.0443 | 11300 |
| B17 | 254 nM | 0.29 | 1.14e+06 |
| B18 | 64200 nM | 1.02 | 15900 |

Target: CD3 antigen of Figures 3B and 3C (not named)
Assay: kinetic table of IgGs; method and antigen not stated
Remark: another data set of the same source

| Binder | Kd [nM] | koff [s⁻¹] | kon [M⁻¹ s⁻¹] |
| --- | --- | --- | --- |
| B19 | 8.46 | 0.000242 | 28600 |
| B8 | 0.86 | 2.69e-05 | 31100 |
